Test [1] concerns the target mouse GITR (on activated mouse T cells) (mouse) (UniProt O35714). The test can be described thus: in vitro binding on activated mouse CD4+ T cells.
The target is the same in test [2]. The test can be described thus: in vitro binding on activated mouse CD8+ T cells.
The target of test [3] is T1, human GITR (on activated human T cells) (human, UniProt Q9Y5U5 26-241).
T1 construct: also called glucocorticoid-inducible TNF receptor; TNFRSF18
T1 sequence: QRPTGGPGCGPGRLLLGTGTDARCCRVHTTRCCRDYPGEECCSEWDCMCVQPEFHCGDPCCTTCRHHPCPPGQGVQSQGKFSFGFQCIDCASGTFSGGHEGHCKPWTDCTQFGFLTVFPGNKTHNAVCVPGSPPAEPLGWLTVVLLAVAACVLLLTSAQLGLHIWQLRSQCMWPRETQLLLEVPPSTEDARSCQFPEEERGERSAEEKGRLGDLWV
The experiment in a line: in vitro binding on activated human CD4+ T cells.

The target in test [4] is T1, human GITR (on activated human T cells). The experiment in a line: in vitro binding on activated human CD8+ T cells.

As usually defined, the EC50 is the concentration giving half of the maximal effect. The low end stands for a more potent agent, the high end for a less potent agent.

mouse GITR (on activated mouse T cells) (mouse), sequence (O35714 20-228): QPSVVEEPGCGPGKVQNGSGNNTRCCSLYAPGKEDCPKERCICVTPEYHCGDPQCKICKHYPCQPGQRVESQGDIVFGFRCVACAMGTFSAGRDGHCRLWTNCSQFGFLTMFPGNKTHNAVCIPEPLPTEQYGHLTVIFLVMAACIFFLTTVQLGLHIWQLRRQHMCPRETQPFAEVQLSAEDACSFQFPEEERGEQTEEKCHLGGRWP

For DTA1-mIgG2a (antibody), the results for the EC50 in test [1] and in test [2] were 0.14 nM and 0.17 nM, respectively.

Turning to DTA1-mIgG2b (antibody), the EC50 in test [1] and in test [2] was 0.33 nM in each case.

B1: 28F3.IgG1 (antibody, V domains shown)
VH: QVQLVESGGGVVQPGRSLRLSCAASGFTFSSYGMHWVRQAPGKGLEWVAVIWYEGSNKYYADSVKGRFTISRDNSKNTLYLQMNSLRAEDTAVYYCARGGSMVRGDYYYGMDVWGQGTTVTVSS
VL: AIQLTQSPSSLSASVGDRVTITCRASQGISSALAWYQQKPGKAPKLLIYDASSLESGVPSRFSGSGSGTDFTLTISSLQPEDFATYYCQQFNSYPYTFGQGTKLEIKR
notes: Fully human IgG1 agonist antibody to GITR; also called GITR Ab; anti-GITR agonist Ab 28F3.IgG1
As for B1, the half-maximal effective concentration (EC50) in test [3] was 0.37 nM; in test [4], 0.44 nM.
